Results from patent US20130089544A1 (AstraZeneca / MedImmune, published 2013).

B1: monoclonal antibody 1.18.1 (antibody, V domains shown)
VH: EVQLVESGGGLVKPGGSLRLSCAASGFTFSSYSMNWVRQAPGKGLEWVSSISSSSSYIYYADSVKGRFTISRDNAKNSLYLQMNSLSAEDTAVYSCARGGDGYNYYYFDYWGQGTLVTVSS
VL: DIVMTQSPGSLVVSLGERATITCKSSQSVFFRSNNKNCLAWYQQRPGQSPNLLIYWASTRESGVPDRFSGSGSGTDFTLTISSLQAEDVAVYYCQQYFGSPFTFGPGTKVDIK
notes: Fully human IgG (gamma/kappa) from a XenoMouse XM3B-3 hybridoma; constant regions not tied to it
B2: monoclonal antibody 1.39 (antibody, V domains shown)
VH: EVQLVESGGGLVKPGGSLRLSCAASGFTFSSYSMNWVRQAPGKGLEWVSSISSSSSYIYYADSVKGRFTISRDNAKNSLYLQMNSLRAEDTAVYYCARGGDGYNYYYFDYWGQGTLVTVSS
VL: DIVMTQSPDSLAVSLGERATITCKSSQSVFFRSNNKNCLAWYQQRPGQPPNLLIYWASSRESGVPDRFSGSGSGTDFALTISSLQTEDVAVYYCQQYFGSPFTFGPGTKVDIK
notes: Fully human IgG (gamma/kappa) from a XenoMouse XM3B-3 hybridoma; constant regions not tied to it; also called 1.39.1; 1.39.2

Tests used:
[1] = molecular target: T1, human ErbB2, full length, on cells (human, UniProt P04626 23-1255); assay: cell-based or functional assay
[2] = molecular target: T1, human ErbB2, full length, on cells; assay: cell-based or functional assay; remark: listed apart in the source
[3] = molecular target: T1, human ErbB2, full length, on cells; assay: cell-based or functional assay; remark: listed apart in the source
[4] = molecular target: T2, human ErbB2 ECD-myc/His fusion protein (human, UniProt P04626 23-652); assay: limited antigen ELISA, 31 ng/ml ErbB2 ECD-myc/His coated, supernatant 1:25
T2 construct: Made in-house in 293T cells; also called hErbB2(ECD)/cMyc-His; huErbB2 (ECD)/c-myc-His; not shown: c-myc/His tag of the pSecTag2Hygro vector
Description: […] […] Antigen-coated plates were washed three times, blocked with 1% non-fat skim milk/PBS for at least 30 minutes at room temperature, and then washed again three times. Each hybridoma line sample was titrated in 1% non-fat skim-milk/PBS 1:3 for 7 points starting from a 1:25 dilution. […] The next day, plates were washed three times and incubated with 50 μl of 400 ng/ml immunopure Goat anti-human IgG (Fc)-HRP (Pierce catalog #31416) for 1 hour at room temperature. Then, the plates were extensively washed and pat dried on paper towel to remove residual HRP in wells. HRP substrate TMB (enhanced K-blue TMB, Neogen catalog #308177) was added to each well and incubated for 30 min. The reaction was stopped by addition of 1N HCl. Optical density at 450 nm was read on a microplate reader (Titerteck Multiskan Ascent).

[5] = molecular target: T1, human ErbB2, full length, on cells; assay: cell-based or functional assay; remark: listed apart in the source
[6] = molecular target: T1, human ErbB2, full length, on cells; assay: cell-based or functional assay; remark: listed apart in the source
[7] = molecular target: T2, human ErbB2 ECD-myc/His fusion protein; assay: SPR, Biacore 2000 medium resolution; mAb captured on goat anti-human IgG, ErbB2(ECD)-cMyc/His injected; 1:1 fit
Description: The binding affinity of eight of the anti-ErbB2 antibodies was measured by medium resolution Biacore. All experiments were performed using a Biacore 2000 instrument.
First, 12 high-density goat α-human IgG antibody surfaces over three CM5 Biacore chips were prepared using routine amine coupling. […] Before each antigen injection cycle, each mAb was captured for six to nine seconds at a 100 μL/min flow rate. A 2-minute wash step followed each capture injection to stabilize each mAb baseline. […] All samples were randomly injected with several mAb capture/buffer inject cycles interspersed for double referencing. […] A flow rate of 100 μL/min. was used for all injection cycles. The data was fit to a 1:1 interaction model using CLAMP.

[8] = molecular target: T1, human ErbB2, full length, on cells; assay: cell-based or functional assay; remark: listed apart in the source
[9] = molecular target: T2, human ErbB2 ECD-myc/His fusion protein; assay: SPR, Biacore T100 high resolution; mAb captured on goat anti-human IgG, hHer-2(ECD)cMyc injected; 1:1 fit
Description: All experiments were performed using a Biacore T100 instrument. First, a high-density goat α human IgG antibody (Caltag H10500) surface was prepared over two CM5 Biacore chips using routine amine coupling. Each mAb was diluted in HBS-P running buffer containing 100 μg/ml Bovine serum albumin (BSA).
A capture level protocol was developed for all five mAbs. Before each antigen injection cycle, each mAb was captured for 15 to 30 seconds at a 20 μL/min flow rate. A 5-minute wash step followed each capture injection to stabilize each mAb baseline. […] The samples were prepared in the running buffer described above. All samples were randomly injected with several mAb capture/buffer inject cycles interspersed for double referencing. […] A flow rate of 50 μL/min. was used for all injection cycles.
All sensorgram data were fit to a 1:1 interaction model using CLAMP.

Binder | N1 % Inhibition @40 µg/ml, BT474 cell proliferation [1] | N1 EC50 (ng/ml), inhibition of BT474 cell proliferation [1] | N2 % Inhibition @40 µg/ml, BT474 cell proliferation [1] | N2 EC50 (ng/ml), inhibition of BT474 cell proliferation [1] | EC50 (ng/ml) n1, inhibition of Heregulin-induced ErbB2 phosphorylation in MCF7 cells [2] | EC50 (ng/ml) n2, inhibition of Heregulin-induced ErbB2 phosphorylation in MCF7 cells [2] | 1 hr pTyr inhibition % (Heregulin-induced ErbB2 phosphorylation in MCF7 cells, hybridoma supernatant) [3] | 24 hr pTyr inhibition % (Heregulin-induced ErbB2 phosphorylation in MCF7 cells, hybridoma supernatant) [3] | LA at 31 ng/ml (OD) [4] | % inhibition @36 µg/ml, SKBR3 cell proliferation [5] | EC50 (ng/ml), inhibition of SKBR3 cell proliferation [5] | % Inhibition @10 µg/ml (n1), ErbB2 phosphorylation in BT474 cells at 48 hours [6] | % Inhibition @10 µg/ml (n2), ErbB2 phosphorylation in BT474 cells at 48 hours [6] | Kd [7] | koff [7] | kon [7] | % Inhibition @10 µg/ml, Heregulin-induced MCF7 cell proliferation [8] | EC50 (ng/ml), inhibition of Heregulin-induced MCF7 cell proliferation [8] | also measured
B1 | 34% | 38.1 ng/mL | 39% | 28.2 ng/mL | 4.2 ng/mL | 10.8 ng/mL | 85% | 96% | 3.03 OD 450 nm | 46% | 26.3 ng/mL | 24% | 33% | 3 nM | 0.000302 s⁻¹ | 100000 M⁻¹ s⁻¹ | 94% | 415 ng/mL | –
B2 | 29% | 156 ng/mL | 40% | 42.3 ng/mL | 46.9 ng/mL | 26.3 ng/mL | 82% | 99% | 2.57 OD 450 nm | 41% | 68.9 ng/mL | 37% | 26% | 2 nM | 0.000236 s⁻¹ | 115000 M⁻¹ s⁻¹ | 89% | 479 ng/mL | Kd [9]: 13.4 nM; koff [9]: 0.000214 s⁻¹; kon [9]: 16000 M⁻¹ s⁻¹
